In patent JP2018153172A (dated 2018):
Substitutions are numbered along the chain they refer to.

T1: 可溶性ヒトgp130受容体 (soluble human gp130 receptor, extracellular region of SEQ ID NO 1 with six histidines) (human, UniProt P40189 23-619)
T1 construct: Secreted from CHO DG44 cells and purified on HisTrap; no cleavage site is stated; also called 可溶性ヒトgp130受容体タンパク質; ヒト可溶性gp130受容体
T1 sequence: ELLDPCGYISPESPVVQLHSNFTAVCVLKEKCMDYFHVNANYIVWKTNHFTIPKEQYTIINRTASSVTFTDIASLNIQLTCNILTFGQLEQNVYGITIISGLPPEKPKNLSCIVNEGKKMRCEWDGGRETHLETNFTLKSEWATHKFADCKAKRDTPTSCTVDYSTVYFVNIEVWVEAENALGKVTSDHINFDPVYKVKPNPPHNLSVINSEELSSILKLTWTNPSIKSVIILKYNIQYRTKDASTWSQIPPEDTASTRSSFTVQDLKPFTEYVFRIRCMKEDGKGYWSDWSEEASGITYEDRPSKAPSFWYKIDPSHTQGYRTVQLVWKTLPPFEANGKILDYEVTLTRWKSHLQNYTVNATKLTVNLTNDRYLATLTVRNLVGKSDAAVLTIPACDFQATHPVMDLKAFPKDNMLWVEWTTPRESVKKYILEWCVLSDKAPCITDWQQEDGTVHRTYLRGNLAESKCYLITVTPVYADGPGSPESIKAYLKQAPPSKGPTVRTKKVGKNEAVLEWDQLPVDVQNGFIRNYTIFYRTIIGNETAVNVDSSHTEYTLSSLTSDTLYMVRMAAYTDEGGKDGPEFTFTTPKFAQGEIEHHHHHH

B1: ヒト化抗体A AH7−AL1 (antibody, V domains shown)
VH: EVQLVQSGAEVKKPGATVKISCKASGYTFTDYNMDWVRQAPGQGLEWIGDINSHSGGIIYNQKFKDWVTMTRDTSINTAYMELRLRSDDTAVYYCARTYYVYGHFFDYWGQGTLVTVSA
VL: DIQMTQSPSSLSASVGDRVTITCNVSSSVTSMYWYQQKPGKAPKLLIYLTSNLASGVPARFSGSGSGTEFTLTISSLQPDDFATYYCQQWSTNPLTFGAGTKLDLK
notes: VH on human IgG1 constant region (pFUSEss-CHIg-hG1), VL on human kappa constant region (pFUSE2ss-CLIg-hk); also called AH7-AL1
B2: ヒト化抗体A AH7−AL6 (antibody, V domains shown)
VH: B1 VH
VL: EIVLTQSPATLSLSPGERATLSCNVSSSVTSMYWYQQKPGQAPRLLIYLTSNLASGIPDRFSGSGSGTDFTLTISRLEPEDFAVYYCQQWSTNPLTFGQGTKVEIK
notes: VH on human IgG1 constant region (pFUSEss-CHIg-hG1), VL on human kappa constant region (pFUSE2ss-CLIg-hk); also called AH7-AL6
B3: ヒト化抗体A AH7−AL8 (antibody, V domains shown)
VH: B1 VH
VL: ELVLTQSPGTLSLSAGERATLSCNVSSSVTSMYWYQQKPGKAPKLLIYLTSNLASGAPSRFSGSGSGTDFTLTISSLQPDDFATYYCQQWSTNPLTFGGGTKLEIK
notes: VH on human IgG1 constant region (pFUSEss-CHIg-hG1), VL on human kappa constant region (pFUSE2ss-CLIg-hk); also called AH7-AL8
B4: ヒト化抗体A AH7−AL5 (antibody, V domains shown)
VH: B1 VH
VL: B1 VL with S9A, D17E, R18T
notes: VH on human IgG1 constant region (pFUSEss-CHIg-hG1), VL on human kappa constant region (pFUSE2ss-CLIg-hk); also called AH7-AL5
B5: ヒト化抗体A AH7−AL3 (antibody, V domains shown)
VH: B1 VH
VL: B1 VL with S10T, A99Q, L103V, D104E, L105V
notes: VH on human IgG1 constant region (pFUSEss-CHIg-hG1), VL on human kappa constant region (pFUSE2ss-CLIg-hk); also called AH7-AL3
B6: ヒト化抗体A AH7−AL4 (antibody, V domains shown)
VH: B1 VH
VL: DIQMTQSPSSLSASVGDRVTITCNVSSSVTSMYWYQQKQGKSPQLLVYLTSNLASGVPSRFSGSGSGTDFTLTISSLQPEDFATYYCQQWSTNPLTFGQGTKVEIK
notes: VH on human IgG1 constant region (pFUSEss-CHIg-hG1), VL on human kappa constant region (pFUSE2ss-CLIg-hk); also called AH7-AL4
B7: ヒト化抗体A AH2−AL2 (antibody, V domains shown)
VH: QVQLQQPGAELVQPGTSVRLSCKASGYTFTDYNMDWVKQRPGQGLEWIGDINSHSGGIIYNQKFKDKATLTVDKSSSTAYMQLSSLTSEDSAVYYCTRTYYVYGHFFDYWGQGTLVTVSA
VL: DIQMTQSPSSLSASVGDRVTITCNVSSSVTSMYWYQQKQGKSPQLLVYLTSNLASGVPSRFSGSGSGTQFSLKINNLQPEDFGSYYCQQWSTNPLTFGAGTKLDLK
notes: VH on human IgG1 constant region (pFUSEss-CHIg-hG1), VL on human kappa constant region (pFUSE2ss-CLIg-hk); also called AH2-AL2
B8: ヒト化抗体A AH2−AL6 (antibody, V domains shown)
VH: B7 VH
VL: B2 VL
notes: VH on human IgG1 constant region (pFUSEss-CHIg-hG1), VL on human kappa constant region (pFUSE2ss-CLIg-hk); also called AH2-AL6
B9: ヒト化抗体A AH2−AL8 (antibody, V domains shown)
VH: B7 VH
VL: B3 VL
notes: VH on human IgG1 constant region (pFUSEss-CHIg-hG1), VL on human kappa constant region (pFUSE2ss-CLIg-hk); also called AH2-AL8
B10: ヒト化抗体A AH7−AL2 (antibody, V domains shown)
VH: B1 VH
VL: B7 VL
notes: VH on human IgG1 constant region (pFUSEss-CHIg-hG1), VL on human kappa constant region (pFUSE2ss-CLIg-hk); also called AH7-AL2
B11: ヒト化抗体A AH4−AL7 (antibody, V domains shown)
VH: QVQLVQSGAEVKKPGSSVKVSCKASGYTFTDYNMDWVRQAPGQGLEWMGDINSHSGGIIYNQKFKDRVTITADESTSTAYMELSSLRSEDTAVYYCARTYYVYGHFFDYWGQGTLVTVSS
VL: DIQMTQSPSTLSASIGDRVTITCNVSSSVTSMYWFQQRPGQAPKVLIYLTSNLASGVPSRFSGSGSGTDFTFTISSLQPEDIATYYCQQWSTNPLTFGGGTKVDIK
notes: VH on human IgG1 constant region (pFUSEss-CHIg-hG1), VL on human kappa constant region (pFUSE2ss-CLIg-hk); also called AH4-AL7
B12: ヒト化抗体A AH7−AL7 (antibody, V domains shown)
VH: B1 VH
VL: B11 VL
notes: VH on human IgG1 constant region (pFUSEss-CHIg-hG1), VL on human kappa constant region (pFUSE2ss-CLIg-hk); also called AH7-AL7
B13: ヒト化抗体A AH3−AL1 (antibody, V domains shown)
VH: B11 VH with S16A, M48I, R67K, V68A, I70M, A72V, E74T, S77N
VL: B1 VL
notes: VH on human IgG1 constant region (pFUSEss-CHIg-hG1), VL on human kappa constant region (pFUSE2ss-CLIg-hk); also called AH3-AL1
B14: ヒト化抗体A AH3−AL6 (antibody, V domains shown)
VH: B11 VH with S16A, M48I, R67K, V68A, I70M, A72V, E74T, S77N
VL: B2 VL
notes: VH on human IgG1 constant region (pFUSEss-CHIg-hG1), VL on human kappa constant region (pFUSE2ss-CLIg-hk); also called AH3-AL6
B15: ヒト化抗体A AH3−AL2 (antibody, V domains shown)
VH: B11 VH with S16A, M48I, R67K, V68A, I70M, A72V, E74T, S77N
VL: B7 VL
notes: VH on human IgG1 constant region (pFUSEss-CHIg-hG1), VL on human kappa constant region (pFUSE2ss-CLIg-hk); also called AH3-AL2
B16: ヒト化抗体A AH2−AL7 (antibody, V domains shown)
VH: B7 VH
VL: B11 VL
notes: VH on human IgG1 constant region (pFUSEss-CHIg-hG1), VL on human kappa constant region (pFUSE2ss-CLIg-hk); also called AH2-AL7
B17: ヒト化抗体A AH5−AL1 (antibody, V domains shown)
VH: B11 VH with Q1E, A9P, V11L, S16A, R38K, A40R, M48I, S84T, R87T, T117S
VL: B1 VL
notes: VH on human IgG1 constant region (pFUSEss-CHIg-hG1), VL on human kappa constant region (pFUSE2ss-CLIg-hk); also called AH5-AL1
B18: ヒト化抗体A AH8−AL7 (antibody, V domains shown)
VH: B11 VH with Q1E, S16A, Q43K, M48V, E74R, A79V, S85G, Q112K
VL: B11 VL
notes: VH on human IgG1 constant region (pFUSEss-CHIg-hG1), VL on human kappa constant region (pFUSE2ss-CLIg-hk); also called AH8-AL7
B19: ヒト化抗体A AH5−AL7 (antibody, V domains shown)
VH: B11 VH with Q1E, A9P, V11L, S16A, R38K, A40R, M48I, S84T, R87T, T117S
VL: B11 VL
notes: VH on human IgG1 constant region (pFUSEss-CHIg-hG1), VL on human kappa constant region (pFUSE2ss-CLIg-hk); also called AH5-AL7
B20: ヒト化抗体A AH5−AL4 (antibody, V domains shown)
VH: B11 VH with Q1E, A9P, V11L, S16A, R38K, A40R, M48I, S84T, R87T, T117S
VL: B6 VL
notes: VH on human IgG1 constant region (pFUSEss-CHIg-hG1), VL on human kappa constant region (pFUSE2ss-CLIg-hk); also called AH5-AL4
B21: ヒト化抗体A AH8−AL1 (antibody, V domains shown)
VH: B11 VH with Q1E, S16A, Q43K, M48V, E74R, A79V, S85G, Q112K
VL: B1 VL
notes: VH on human IgG1 constant region (pFUSEss-CHIg-hG1), VL on human kappa constant region (pFUSE2ss-CLIg-hk); also called AH8-AL1
B22: ヒト化抗体A AH3−AL4 (antibody, V domains shown)
VH: B11 VH with S16A, M48I, R67K, V68A, I70M, A72V, E74T, S77N
VL: B6 VL
notes: VH on human IgG1 constant region (pFUSEss-CHIg-hG1), VL on human kappa constant region (pFUSE2ss-CLIg-hk); also called AH3-AL4
B23: ヒト化抗体A AH3−AL5 (antibody, V domains shown)
VH: B11 VH with S16A, M48I, R67K, V68A, I70M, A72V, E74T, S77N
VL: B1 VL with S9A, D17E, R18T
notes: VH on human IgG1 constant region (pFUSEss-CHIg-hG1), VL on human kappa constant region (pFUSE2ss-CLIg-hk); also called AH3-AL5
B24: ヒト化抗体A AH5−AL5 (antibody, V domains shown)
VH: B11 VH with Q1E, A9P, V11L, S16A, R38K, A40R, M48I, S84T, R87T, T117S
VL: B1 VL with S9A, D17E, R18T
notes: VH on human IgG1 constant region (pFUSEss-CHIg-hG1), VL on human kappa constant region (pFUSE2ss-CLIg-hk); also called AH5-AL5
B25: ヒト化抗体A AH3−AL7 (antibody, V domains shown)
VH: B11 VH with S16A, M48I, R67K, V68A, I70M, A72V, E74T, S77N
VL: B11 VL
notes: VH on human IgG1 constant region (pFUSEss-CHIg-hG1), VL on human kappa constant region (pFUSE2ss-CLIg-hk); also called AH3-AL7
B26: ヒト化抗体A AH3−AL3 (antibody, V domains shown)
VH: B11 VH with S16A, M48I, R67K, V68A, I70M, A72V, E74T, S77N
VL: B1 VL with S10T, A99Q, L103V, D104E, L105V
notes: VH on human IgG1 constant region (pFUSEss-CHIg-hG1), VL on human kappa constant region (pFUSE2ss-CLIg-hk); also called AH3-AL3
B27: ヒト化抗体A AH1−AL7 (antibody, V domains shown)
VH: B11 VH with Q1E, M48I, R67K, V68A, S77N, L115T, V116L
VL: B11 VL
notes: VH on human IgG1 constant region (pFUSEss-CHIg-hG1), VL on human kappa constant region (pFUSE2ss-CLIg-hk); also called AH1-AL7
B28: ヒト化抗体A AH6−AL7 (antibody, V domains shown)
VH: B11 VH with S16A, M48I, S84T, R87T, L115T
VL: B11 VL
notes: VH on human IgG1 constant region (pFUSEss-CHIg-hG1), VL on human kappa constant region (pFUSE2ss-CLIg-hk); also called AH6-AL7
B29: ヒト化抗体A AH5−AL3 (antibody, V domains shown)
VH: B11 VH with Q1E, A9P, V11L, S16A, R38K, A40R, M48I, S84T, R87T, T117S
VL: B1 VL with S10T, A99Q, L103V, D104E, L105V
notes: VH on human IgG1 constant region (pFUSEss-CHIg-hG1), VL on human kappa constant region (pFUSE2ss-CLIg-hk); also called AH5-AL3

Target: T1, 可溶性ヒトgp130受容体 (soluble human gp130 …)
Assay: ELISA, immobilised soluble human gp130, COS1 supernatant, anti-human antibody-HRP

Does B1 bind?
Result: binds

Does B2 bind?
Result: binds

Does B3 bind?
Result: binds

Does B4 bind?
Result: binds

Does B5 bind?
Result: binds

Does B6 bind?
Result: binds

Does B7 bind?
Result: binds

Does B8 bind?
Result: binds

Does B9 bind?
Result: binds

Does B10 bind?
Result: binds

Does B11 bind?
Result: binds

Does B12 bind?
Result: binds

Does B13 bind?
Result: binds

Does B14 bind?
Result: binds

Does B15 bind?
Result: binds

Does B16 bind?
Result: binds

Does B17 bind?
Result: binds

Does B18 bind?
Result: binds

Does B19 bind?
Result: binds

Does B20 bind?
Result: binds

Does B21 bind?
Result: binds

Does B22 bind?
Result: binds

Does B23 bind?
Result: binds

Does B24 bind?
Result: binds

Does B25 bind?
Result: binds

Does B26 bind?
Result: binds

Does B27 bind?
Result: binds

Does B28 bind?
Result: binds

Does B29 bind?
Result: binds
